Test results from article PMC12574955, “The Ync13–Rga7–Rng10 complex selectively coordinates secretory vesicle trafficking and secondary septum formation during cytokinesis” (PLOS Biology, 2025).

Biological target: T1, MBP-Ync13-6xHis (Schizosaccharomyces pombe, UniProt O13683 1-1237)
T1 construct: Ync13, Munc13/UNC-13 family protein of Schizosaccharomyces pombe; FL cDNA in pET21a-MBP; MBP-TEV-GGSGGS precedes Ync13; also called MBP-Ync13-6His; not shown: MBP, N-terminal, kept; His6, C-terminal, kept
T1 sequence (looked up): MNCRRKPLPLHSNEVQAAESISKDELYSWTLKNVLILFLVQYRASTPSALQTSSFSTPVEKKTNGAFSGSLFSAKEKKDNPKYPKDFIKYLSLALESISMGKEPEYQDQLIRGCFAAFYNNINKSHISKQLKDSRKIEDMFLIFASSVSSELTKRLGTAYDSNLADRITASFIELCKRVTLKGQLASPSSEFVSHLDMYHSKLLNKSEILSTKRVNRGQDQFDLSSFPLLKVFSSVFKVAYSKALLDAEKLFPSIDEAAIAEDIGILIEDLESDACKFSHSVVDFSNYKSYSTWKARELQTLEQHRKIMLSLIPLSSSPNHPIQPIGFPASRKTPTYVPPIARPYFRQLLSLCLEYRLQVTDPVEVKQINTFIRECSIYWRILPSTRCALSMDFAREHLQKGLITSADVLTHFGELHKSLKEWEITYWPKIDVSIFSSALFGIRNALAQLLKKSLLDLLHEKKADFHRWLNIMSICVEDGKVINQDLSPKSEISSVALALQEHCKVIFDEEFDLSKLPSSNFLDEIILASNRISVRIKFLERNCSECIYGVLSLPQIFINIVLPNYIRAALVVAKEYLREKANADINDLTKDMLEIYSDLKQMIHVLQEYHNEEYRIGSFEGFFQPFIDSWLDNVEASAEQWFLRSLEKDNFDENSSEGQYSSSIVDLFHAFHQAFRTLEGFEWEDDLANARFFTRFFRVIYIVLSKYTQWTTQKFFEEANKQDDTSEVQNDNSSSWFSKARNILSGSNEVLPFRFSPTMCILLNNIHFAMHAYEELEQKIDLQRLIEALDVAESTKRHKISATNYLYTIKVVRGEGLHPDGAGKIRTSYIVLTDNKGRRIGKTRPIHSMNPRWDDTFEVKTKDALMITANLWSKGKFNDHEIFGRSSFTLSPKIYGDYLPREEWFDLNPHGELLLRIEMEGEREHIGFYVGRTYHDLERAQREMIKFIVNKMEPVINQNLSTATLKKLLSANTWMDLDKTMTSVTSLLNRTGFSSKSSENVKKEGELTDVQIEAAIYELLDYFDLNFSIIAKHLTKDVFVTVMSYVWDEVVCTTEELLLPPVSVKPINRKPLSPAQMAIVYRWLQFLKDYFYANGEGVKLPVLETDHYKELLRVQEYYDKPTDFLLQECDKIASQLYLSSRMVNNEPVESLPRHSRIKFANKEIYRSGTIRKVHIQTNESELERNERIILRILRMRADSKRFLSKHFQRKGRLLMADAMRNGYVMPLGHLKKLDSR
Assay: supernatant depletion assay; Rga7-6xHis at 4 µM titrated with MBP-Ync13-6xHis immobilized on Cobalt beads; beads pelleted at 16,000g, supernatant on SDS-PAGE, Coomassie, bound fraction fitted
Conditions: both partners purified

Kd: 10 µM
B1: Rga7-6xHis (natural protein, Schizosaccharomyces pombe, UniProt O94466 1-695, looked up)
chain: MLSAPSSSTTPASPPTSPPNTTSSDDFAVLKEPKVEAILNSELGLAILNDRIKDYLLTCKELAGFFKKRSILEEESGKNLQKLAKSYLETFQSKHHSPQSFSASVITSMEIHEQLANHSLTLQKTLSAFSDQVIEFHKNAERKRKSIKEYAKKQENAYLEAVMQMDKSKSRFKGAETEYNRALDNKNTGDSQKKVGFFKPKSNAQLTKLEDEARLKAENAESDMHSKIENAQNVQKQLLCIHRPNYIKQFFSLQREIESSLIANYLRYTKLCESNTLLNGLTIRPQKPTPTNCGLQHALDNINANTDFVQYVLHASIKHEDNKNPTDASKTKIIQPPSSYGTGSSAGKTNPPVNPTIKVTAAIPSPLQNTNPAPSTFPNPSVASPAFPNSSTSNPSTAPASASPLASTLKPSTANDTNGSSSSSSSNPRTSSPLASNAENKPPVAQQSPPVLLPTLPPIQTTTIQTSREVAPPPSSINSNRAASPFRPTSVSPQPSSPTKSLLFGARLDAIILREHSNIPNIVMQCTSQVENFGLNLQGIYRVPSSSARVNMLRSQFENNPLLQLHTPEDYENDVHAVADLLKIFFRELREPLIPDNHQRDFIDAGNVEDESRRRDAVHRAINDLPDANYSTIRHLTIHLAKIKENSDVNKMSTNNLAIIWGPTIIKQATIPEISSFSRTIEILIDYCFTIFDYD
notes: Rga7, F-BAR protein and Rho2 GAP of Schizosaccharomyces pombe; FL Rga7 in pET21a; also called Rga7-6His; not shown: His6, C-terminal, kept
